T1: high affinity SIRP-α D1 variant CV1-3
T1 chain: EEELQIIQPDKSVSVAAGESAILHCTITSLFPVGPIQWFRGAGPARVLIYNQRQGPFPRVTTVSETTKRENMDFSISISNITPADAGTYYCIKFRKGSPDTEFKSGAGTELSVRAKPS

T2: cynomolgus SIRP-α D1 domain (cyno1) (cynomolgus monkey, UniProt Q5TFQ8 30-148 (human entry), limits assumed)
T2 chain: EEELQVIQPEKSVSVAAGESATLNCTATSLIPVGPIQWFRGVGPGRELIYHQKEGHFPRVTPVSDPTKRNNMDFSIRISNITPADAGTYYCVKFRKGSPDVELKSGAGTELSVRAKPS

T3: cynomolgus SIRP-α D1 domain (cyno2) (cynomolgus monkey, UniProt Q5TFQ8 30-148 (human entry), limits assumed)
T3 chain: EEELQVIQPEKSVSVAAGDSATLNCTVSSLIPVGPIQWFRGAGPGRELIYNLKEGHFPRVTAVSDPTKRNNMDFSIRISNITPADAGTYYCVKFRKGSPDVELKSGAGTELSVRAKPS

T4: mouse 129 SIRP-α D1 domain (mouse (129 strain), UniProt P97797 32-150)
T4 construct: also called m129
T4 chain: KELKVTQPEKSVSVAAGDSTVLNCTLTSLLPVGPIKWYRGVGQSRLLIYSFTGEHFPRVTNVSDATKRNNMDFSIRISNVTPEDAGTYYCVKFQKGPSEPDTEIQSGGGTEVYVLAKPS

T5: NOD mouse SIRP-α D1 domain (mouse (NOD strain))
T5 chain: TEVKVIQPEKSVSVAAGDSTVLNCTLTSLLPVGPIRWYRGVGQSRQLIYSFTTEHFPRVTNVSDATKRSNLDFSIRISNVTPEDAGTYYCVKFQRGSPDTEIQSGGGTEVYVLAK

T6: C57BL/6 mouse SIRP-α D1 domain (mouse (C57BL/6 strain), UniProt P97797 32-148)
T6 sequence: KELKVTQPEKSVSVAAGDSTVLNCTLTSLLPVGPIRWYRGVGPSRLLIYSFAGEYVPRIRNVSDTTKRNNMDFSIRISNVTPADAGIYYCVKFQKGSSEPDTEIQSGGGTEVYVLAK


Tests used:
Assay in all cases: SPR, Langmuir fit
[1] = biological target: T1, high affinity SIRP-α D1 variant CV1-3
How it was run: (§1)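 Pre-filtered culture media supplied the scFv-Fc antibody clones, which were captured by anti-human IgG Fc amine-coupled (about 4000 RU) to a GLC chip on a ProteOn XPR36. SIRP analytes were flowed in PBS pH 7.4 with 0.01% Tween-20 at 25° C. Interspot and buffer-blank responses were subtracted from the data, which were then fitted to a 1:1 Langmuir model. Dissociation rate constants (koff) were derived from this fitting.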

human SIRPγ isoform 1 = biological target: T7, human SIRPγ isoform 1 (human, UniProt Q9P1W8 29-147)
T7 construct: also called SIRPg; sirpg
T7 sequence (Q9P1W8 29-147 limits assumed): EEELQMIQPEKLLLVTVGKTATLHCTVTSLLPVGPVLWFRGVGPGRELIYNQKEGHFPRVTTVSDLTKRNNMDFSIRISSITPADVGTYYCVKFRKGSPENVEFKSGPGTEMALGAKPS
How it was run: as §1

[2] = biological target: T8, human SIRP-α v1 D1 domain (human, UniProt P78324 31-149)
T8 construct: also called human v1
T8 sequence (P78324 31-149 limits assumed): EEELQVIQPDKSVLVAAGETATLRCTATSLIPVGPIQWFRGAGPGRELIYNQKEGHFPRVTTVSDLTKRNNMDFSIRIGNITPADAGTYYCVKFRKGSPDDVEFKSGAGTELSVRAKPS
How it was run: as §1

[3] = biological target: T9, human SIRP-α v2 D1 domain (human)
T9 construct: also called human v2
How it was run: as §1

[4] = biological target: T2, cynomolgus SIRP-α D1 domain (cyno1)
How it was run: as §1

[5] = biological target: T3, cynomolgus SIRP-α D1 domain (cyno2)
How it was run: as §1

[6] = biological target: T4, mouse 129 SIRP-α D1 domain
How it was run: as §1

[7] = biological target: T5, NOD mouse SIRP-α D1 domain
How it was run: as §1

[8] = biological target: T6, C57BL/6 mouse SIRP-α D1 domain
How it was run: as §1

human SIRPβ isoform 1 = biological target: T10, human SIRPβ isoform 1 (human, UniProt O00241 30-148)
T10 construct: also called SIRPb; sirpb1
T10 sequence (O00241 30-148 limits assumed): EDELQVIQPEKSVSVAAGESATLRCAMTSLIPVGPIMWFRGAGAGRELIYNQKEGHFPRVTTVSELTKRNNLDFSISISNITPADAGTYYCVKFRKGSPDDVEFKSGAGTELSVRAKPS
How it was run: as §1

Binder | koff [1] | koff (human SIRPγ isoform 1) | koff [2] | koff [3] | koff [4] | koff [5] | koff [6] | koff [7] | koff [8] | koff (human SIRPβ isoform 1)
S16 (scFv, V domains shown, also called clone 16) VH: DVQLVESGGGVVRPGESLRLSCAVSGFRFSSYAMSWVRQAPGKGLEWVSGISSGGDTYYVDSVKGRFTISRDNSKNTLYLQVNSLTAEDTAIYYCARETWNHLFDYWGLGTLVTVSS VL: ALTQPASVSANLGETVKITCSGGDSSSHYYGWYQQKSPGSAPVTVIYSDDERPSDIPSRFSGSASGSTATLTITGVRVEDEAIYYCGAYDGSTYANTFGAGTTLTVL | 0.0001 s⁻¹ | 8.17e-05 s⁻¹ | 6.22e-05 s⁻¹ | 0.000111 s⁻¹ | 0.000132 s⁻¹ | 0.000138 s⁻¹ | 0.000176 s⁻¹ | 0.00128 s⁻¹ | 0.00235 s⁻¹ | 0.000113 s⁻¹
S30 (scFv, V domains shown, also called clone 30) VH: DVQLVESGGGVVRPGESLRLSCEASGFTFSSDAMSWVRQAPGKGLEWVSGISSGSSTYYGGSVKGRFTISRDNSKNTLYLQMNSLTAEDTAVYYCARETWNHLFDYWGLGTLVTVSS VL: ALTQPASVSASPGETVEITCSGGSDSSYYYGWYQQKSPGSAPVTVIYSDNKRPSNIPSRFSGSASGSTATLTITGVRVEDEAVYYCGGYDYSTYTNPFGAGTTLTVL | 0.000142 s⁻¹ | 0.000193 s⁻¹ | 0.000132 s⁻¹ | 0.000188 s⁻¹ | 0.000335 s⁻¹ | 0.000366 s⁻¹ | 0.000476 s⁻¹ |  | 0.00244 s⁻¹ | 0.000237 s⁻¹
S29 (scFv, V domains shown, also called clone 29) VH: DVQLVESGGGVVRPGESLRLSCAVSGFRFSSYAMSWVRQAPGKGLEWVSGISSDSDAYYVDSVKGRFTISRDNSKNTLYLQVNSLTAEDTAVYYCARETWNHLFDYWGLGTMVTVSS VL: ALTQPASVSANLGETVKITCSGGDSSSHYYGWFQQKSPGSAPVTLIYSDDERPSDIPSRFSGSASGSTATLTITGVRVEDEAIYFCGAYDGSTYTNTFGAGTTLTVL | 0.000343 s⁻¹ | 0.000216 s⁻¹ | 9.61e-05 s⁻¹ | 0.000178 s⁻¹ | 0.000387 s⁻¹ | 0.000369 s⁻¹ | 0.00114 s⁻¹ |  | 0.00186 s⁻¹ | 0.000279 s⁻¹
S136 (scFv, V domains shown, also called scFv-Fc form of AB136) VH: not shown VL: ETVLTQSPGTLTLSPGERATLTCRASQSVYTYLAWYQEKPGQAPRLLIYGASSRATGIPDRFSGSGSGTEFTLTISSLQSEDFAVYYCQQYYDRPPLTFGGGTKVEIK | 0.00159 s⁻¹ |  | 0.000845 s⁻¹ | 0.00161 s⁻¹ |  | 0.00132 s⁻¹ | 0.000459 s⁻¹ | 0.000386 s⁻¹ | 0.00478 s⁻¹ | 0.0036 s⁻¹
S189 (scFv, V domains shown) VH: DVQLVESGGGVVRPGESLRLSCAASGFTFSSSDMNWVRQAPGEGLEWVSLISGSGEITYYADSVKGRFTISRDNSKNTLYLQMNSLRAEDTAIYYCAKENNMYRFFDYWGLGTLVTVSS VL: ETVLTQSPGTLSLSPGERATLSCRASQSVYTYLAWYQQKPGQPPRLLIHAARNRAAGIPDRFSGSGSGTEFTLTISSLQSEDFAVYYCQQYYDRPPLTFGGGTKVEIK | 0.00228 s⁻¹ |  | 0.00106 s⁻¹ | 0.00281 s⁻¹ | 0.00331 s⁻¹ | 0.00187 s⁻¹ | 0.000837 s⁻¹ | 0.000504 s⁻¹ | 0.0039 s⁻¹ | 0.00278 s⁻¹
S177 (scFv, V domains shown) VH: not shown VL: KTVLTQSPGTLSLSPGERATLTCRADQSVYTYLAWYQERPGQAPRLLIYDASSRATGIPDRFSGSGSGTEFTLTISSLQSEDFAVYYCQQYYDRPPLTFGGGTKVEIK |  |  |  |  | 0.00447 s⁻¹ | 0.00269 s⁻¹ | 0.00104 s⁻¹ | 0.000736 s⁻¹ |  | 
S184 (scFv, V domains shown) VH: not shown VL: ETVLTQSPGTLSLSPGERATLNCRASQSVYTYLAWYQEKPGQAPRLLIYDASSRATGIPDRFSGSGSGTEFTLTISSLESEDFAVYYCQQYYDRPPLTFGGGTKVEIK | 0.00514 s⁻¹ |  |  |  | 0.0039 s⁻¹ | 0.00221 s⁻¹ | 0.000821 s⁻¹ | 0.000638 s⁻¹ | 0.00422 s⁻¹ | 
S178 (scFv, V domains shown) VH: not shown VL: ETVLTQSPGTLTLSPGERATLSCRASQSVYTYLAWYQEKPGQAPRLLIYGASSRATGVPDRFSGSGSGTEFTLTISSLQSEDFAVYYCQQYYDRPPLTFGGGTKVEIK | 0.00426 s⁻¹ |  | 0.00223 s⁻¹ | 0.00317 s⁻¹ | 0.00344 s⁻¹ | 0.00177 s⁻¹ | 0.00112 s⁻¹ | 0.000762 s⁻¹ |  | 0.00473 s⁻¹
S190 (scFv, V domains shown, also called clone 190) VH: not shown VL: ETVLTQSPGTLTLSPGERTTLTCRASQSVYTYLAWYQEKPGQAPRLLIYGASSRATGIPDRFSGSGSGTEFTLTISSLQSEDFAVYYCQQYYDRPPLTFGGGTKVEIK | 0.00308 s⁻¹ |  | 0.00156 s⁻¹ | 0.00199 s⁻¹ | 0.00217 s⁻¹ | 0.00124 s⁻¹ | 0.000773 s⁻¹ | 0.000563 s⁻¹ |  | 0.00256 s⁻¹
S185 (scFv, V domains shown) VH: not shown VL: ETVLTQSPGTLSLSPGERATLNCRASQSVYSYLAWYQERPGQAPRLLIYGASTRATGIPDRFSGSGSGTEFTLTISSLESDDFAVYYCQQYYDRPPLTFGGGTKVEIK | 0.00239 s⁻¹ |  | 0.00122 s⁻¹ | 0.00205 s⁻¹ | 0.00178 s⁻¹ | 0.00103 s⁻¹ | 0.000717 s⁻¹ | 0.000573 s⁻¹ | 0.00514 s⁻¹ | 0.00385 s⁻¹
S193 (scFv, V domains shown, scFv-Fc format (VL-linker-VH on human IgG1 Fc)) VH: not shown VL: ETVLTQSPGTLSLSPGERATLSCRASQSVYTYLAWYQEKPGQAPRLLIYAASTRATGIPDRFSGSGSGTEFTLTISSLQSEDFAVYYCQQYYDRPPLTFGGGTKVEIK |  |  |  |  |  | 0.00428 s⁻¹ | 0.00209 s⁻¹ | 0.00157 s⁻¹ | 0.00389 s⁻¹ | 
S180 (scFv, V domains shown, also called clone 180) VH: not shown VL: ETVLTQSPGTLTLSPGERATLTCRASQSVYTYLAWYQEKPGQAPRLLIYGASSRATGIPDRFSGSGSGTEFTLTISSLQSEDFAVYYCQQYYDRPPLTFGGGTKVEIK | 0.00307 s⁻¹ |  | 0.0016 s⁻¹ | 0.00227 s⁻¹ | 0.0025 s⁻¹ | 0.00138 s⁻¹ | 0.000806 s⁻¹ | 0.000576 s⁻¹ | 0.00466 s⁻¹ | 0.00375 s⁻¹
S175 (scFv, V domains shown) VH: not shown VL: ETVLTQSPGILSLSPGERATLTCRASQSVYTYLAWYQEKPGQAPRLLIYGASSRAAGIPDRFSGSGSGTEFTLTISSLQSEDFAVYYCQQYYDRPPLTFGGGTKVEIK | 0.00165 s⁻¹ |  | 0.000839 s⁻¹ | 0.00183 s⁻¹ | 0.00177 s⁻¹ | 0.00107 s⁻¹ | 0.000605 s⁻¹ | 0.000417 s⁻¹ | 0.0032 s⁻¹ | 0.00299 s⁻¹
S74 (scFv, V domains shown, also called clone 74) VH: DVQLVESGGGVVRPGESLRLSCAASGFTFSSNAMSWVRQAPGKGLEWLAGISAGDSDTYYPASVKGRFTISRDNPKNTLYLQMNTLTAEDTAVYYCARETWNHLFDYWGLGTLVTVSS VL: ALTQPASVSANPGETVKIACSGGSYYSYYYGWYQQKSPGSALVTVIYSDDKRPSGIPSRFSGSASGSTATLTITGVRAEDEAVYYCGGYDYSSYTNDFGAGTTLTVL | 0.000166 s⁻¹ | 0.000225 s⁻¹ | 0.000161 s⁻¹ | 0.000278 s⁻¹ | 0.000337 s⁻¹ | 0.00032 s⁻¹ | 0.000412 s⁻¹ |  | 0.00137 s⁻¹ | 0.000266 s⁻¹
S26 (scFv, V domains shown, also called clone 26) VH: DVQLVESGGGVVRPGESLRLSCAASGFTFSTYAMSWVRQAPGKGLEWVSGISASGSGTYYGDSVKGRFTMSRDNSKNTLYLQMNSLTAEDTAVYYCARETWNHLFDYWGLGTLVTVSS VL: ALTQPASVSANLGGTVEITCSGGSSSYYGWYQQKSPGSAPVTVIYSDNQRPSDIPSRFSGSASDSTATLTITGVQVEDEAIYYCGGYDSSTYANTFGAGTTLTVL | 4.74e-05 s⁻¹ | 8.35e-05 s⁻¹ | 5.81e-05 s⁻¹ | 0.000111 s⁻¹ | 0.000967 s⁻¹ | 0.000743 s⁻¹ | 0.00108 s⁻¹ | 0.000764 s⁻¹ |  | 0.000129 s⁻¹

Reference: patent US20210363269A1 (ALX ONCOLOGY, published 2021)
